# Measured values as given in publication PMC11011275, “Impact of Protein Nanoparticle Shape on the Immunogenicity of Antimicrobial Glycoconjugate Vaccines” (International Journal of Molecular Sciences, 2024).
# B1: Pseudomonas aeruginosa Hemolysin-coregulated protein 1 double mutant G90C + R157C (Hcp1cc) (natural protein)
# chain: MAVDMFIKIGDVKGESKDKTHAEEIDVLAWSWGMSQSGSMHMGGGGGAGKVNVQDLSFTKYIDKSTPNLMMACSSGKHYPQAKLTIRKACGENQVEYLIITLKEVLVSSVSTGGSGGEDRLTENVTLNFAQVQVDYQPQKADGAKDGGPVKYGWNICQNVQA
# notes: Hemolysin-coregulated protein 1 (Hcp1) of Pseudomonas aeruginosa with G90C and R157C; printed monomer mass 18.3 kD; 6 copies make one ring; without reducing agent the rings stack into disulfide-bonded nanotubes (up to 8-9 rings as purified, up to 14-18 rings after the oligomerization process); also called Hcp1cc nanoring; Hcp1cc nanotube; source: tangential flow filtration
# Biological target: the molecule itself
# Assay: negative-stain transmission electron microscopy; Hcp1cc nanotubes incubated with the reducing agent DTT (nanorings)
protein,measurement,value
B1,stoichiometry N,6 monomers
